Measured values as given in patent US20260070987A1.
Positions count from the first letter of the chain named. Names may count otherwise.

B1: equine IgG4 Y436R (antibody, part only; not given: variable domains, not shown: another chain or arm of the molecule)
constant: ASTTAPKVFPLASHSAATSGSTVALGCLVSSYFPEPVTVSWNSGALTSGVHTFPSVLQSSGLYSLSSMVTVPASSLKSQTYICNVAHPASSTKVDKKIVIKECNGGCPAECLQVGPSVFIFPPKPKDVLMISRTPTVTCVVVDVGHDFPDVQFNWYVDGVETHTATTEPKQEQFNSTYRVVSVLPIQHKDWLSGKEFKCKVNNKALPAPVERTISKPTGQPREPQVYVLAPHRDELSKNKVSVTCLVKDFYPTDIDIEWKSNGQPEPETKYSTTPAQLDSDGSYFLYSKLTVETNRWQQGTTFTCAVMHEALHNHRTEKSVSKSPGK
B2: equine IgG4 Y436S (antibody, part only; not given: variable domains, not shown: another chain or arm of the molecule)
constant: B1 constant with R316S
B3: equine IgG4 Y436T (antibody, part only; not given: variable domains, not shown: another chain or arm of the molecule)
constant: B1 constant with R316T
B4: equine IgG4 Y436V (antibody, part only; not given: variable domains, not shown: another chain or arm of the molecule)
constant: B1 constant with R316V
B5: equine IgG4 Y436W (antibody, part only; not given: variable domains, not shown: another chain or arm of the molecule)
constant: B1 constant with R316W
B6: equine IgG4 T286A (antibody, part only; not given: variable domains, not shown: another chain or arm of the molecule)
constant: B1 constant with T164A, R316Y
B7: equine IgG4 T286C (antibody, part only; not given: variable domains, not shown: another chain or arm of the molecule)
constant: B1 constant with T164C, R316Y
B8: equine IgG4 T286D (antibody, part only; not given: variable domains, not shown: another chain or arm of the molecule)
constant: B1 constant with T164D, R316Y
B9: equine IgG4 T286E (antibody, part only; not given: variable domains, not shown: another chain or arm of the molecule)
constant: B1 constant with T164E, R316Y
B10: equine IgG1 T286Y (antibody, part only; not given: variable domains, not shown: another chain or arm of the molecule)
constant: ASTTAPKVFALAPGCGTTSDSTVALGCLVSGYFPEPVKVSWNSGSLTSGVHTFPSVLQSSGFYSLSSMVTVPASTWTSETYICNVVHAASNFKVDKRIEPIPDNHQKVCDMSKCPKCPAPELLGGPSVFIFPPNPKDTLMITRTPEVTCVVVDVSQENPDVKFNWYMDGVEVRYATTRPKEEQFNSTYRVVSVLRIQHQDWLSGKEFKCKVNNQALPQPIERTITKTKGRSQEPQVYVLAPHPDELSKSKVSVTCLVKDFYPPEINIEWQSNGQPELETKYSTTQAQQDSDGSYFLYSKLSVDRNRWQQGTTFTCGVMHEALHNHYTQKNVSKNPGK
B11: equine IgG4 T286F (antibody, part only; not given: variable domains, not shown: another chain or arm of the molecule)
constant: B1 constant with T164F, R316Y
B12: equine IgG4 T286G (antibody, part only; not given: variable domains, not shown: another chain or arm of the molecule)
constant: B1 constant with T164G, R316Y
B13: equine IgG4 T286H (antibody, part only; not given: variable domains, not shown: another chain or arm of the molecule)
constant: B1 constant with T164H, R316Y
B14: equine IgG4 T286I (antibody, part only; not given: variable domains, not shown: another chain or arm of the molecule)
constant: B1 constant with T164I, R316Y
B15: equine IgG4 T286K (antibody, part only; not given: variable domains, not shown: another chain or arm of the molecule)
constant: B1 constant with T164K, R316Y
B16: equine IgG4 T286L (antibody, part only; not given: variable domains, not shown: another chain or arm of the molecule)
constant: B1 constant with T164L, R316Y
B17: equine IgG4 T286M (antibody, part only; not given: variable domains, not shown: another chain or arm of the molecule)
constant: B1 constant with T164M, R316Y
B18: equine IgG4 T286P (antibody, part only; not given: variable domains, not shown: another chain or arm of the molecule)
constant: B1 constant with T164P, R316Y
B19: equine IgG4 T286Q (antibody, part only; not given: Variable domains, not shown: another chain or arm of the molecule)
constant: B1 constant with T164Q, R316Y
B20: equine IgG4 T286R (antibody, part only; not given: variable domains, not shown: another chain or arm of the molecule)
constant: B1 constant with T164R, R316Y
B21: equine IgG1 Q311A (antibody, part only; not given: variable domains, not shown: another chain or arm of the molecule)
constant: B10 constant with Y174T, Q199A
B22: equine IgG4 T286S (antibody, part only; not given: Variable domains, not shown: another chain or arm of the molecule)
constant: B1 constant with T164S, R316Y
B23: equine IgG4 T286V (antibody, part only; not given: variable domains, not shown: another chain or arm of the molecule)
constant: B1 constant with T164V, R316Y
B24: equine IgG4 T286W (antibody, part only; not given: Variable domains, not shown: another chain or arm of the molecule)
constant: B1 constant with T164W, R316Y
B25: equine IgG4 T286Y (antibody, part only; not given: variable domains, not shown: another chain or arm of the molecule)
constant: B1 constant with T164Y, R316Y
B26: equine IgG1 Q311C (antibody, part only; not given: variable domains, not shown: another chain or arm of the molecule)
constant: B10 constant with Y174T, Q199C
B27: equine IgG1 Q311D (antibody, part only; not given: variable domains, not shown: another chain or arm of the molecule)
constant: B10 constant with Y174T, Q199D
B28: equine IgG1 Q311E (antibody, part only; not given: variable domains, not shown: another chain or arm of the molecule)
constant: B10 constant with Y174T, Q199E
B29: equine IgG1 M252F (antibody, part only; not given: variable domains, not shown: another chain or arm of the molecule)
constant: B10 constant with M140F, Y174T
B30: equine IgG1 Q311F (antibody, part only; not given: variable domains, not shown: another chain or arm of the molecule)
constant: B10 constant with Y174T, Q199F
B31: equine IgG1 Q311G (antibody, part only; not given: variable domains, not shown: another chain or arm of the molecule)
constant: B10 constant with Y174T, Q199G
B32: equine IgG1 Q311H (antibody, part only; not given: variable domains, not shown: another chain or arm of the molecule)
constant: B10 constant with Y174T, Q199H
B33: equine IgG1 Q311I (antibody, part only; not given: variable domains, not shown: another chain or arm of the molecule)
constant: B10 constant with Y174T, Q199I
B34: equine IgG1 Q311K (antibody, part only; not given: variable domains, not shown: another chain or arm of the molecule)
constant: B10 constant with Y174T, Q199K
B35: equine IgG1 Q311L (antibody, part only; not given: Variable domains, not shown: another chain or arm of the molecule)
constant: B10 constant with Y174T, Q199L
B36: equine IgG1 Q311M (antibody, part only; not given: variable domains, not shown: another chain or arm of the molecule)
constant: B10 constant with Y174T, Q199M
B37: equine IgG1 Q311N (antibody, part only; not given: Variable domains, not shown: another chain or arm of the molecule)
constant: B10 constant with Y174T, Q199N
B38: equine IgG1 Q311R (antibody, part only; not given: variable domains, not shown: another chain or arm of the molecule)
constant: B10 constant with Y174T, Q199R
B39: equine IgG1 Q311S (antibody, part only; not given: variable domains, not shown: another chain or arm of the molecule)
constant: B10 constant with Y174T, Q199S
B40: equine IgG1 M252K (antibody, part only; not given: variable domains, not shown: another chain or arm of the molecule)
constant: B10 constant with M140K, Y174T
B41: equine IgG1 Q311T (antibody, part only; not given: variable domains, not shown: another chain or arm of the molecule)
constant: B10 constant with Y174T, Q199T
B42: equine IgG1 Q311V (antibody, part only; not given: variable domains, not shown: another chain or arm of the molecule)
constant: B10 constant with Y174T, Q199V
B43: equine IgG1 Q311W (antibody, part only; not given: variable domains, not shown: another chain or arm of the molecule)
constant: B10 constant with Y174T, Q199W
B44: equine IgG1 Q311Y (antibody, part only; not given: Variable domains, not shown: another chain or arm of the molecule)
constant: B10 constant with Y174T, Q199Y
B45: equine IgG1 D312A (antibody, part only; not given: variable domains, not shown: another chain or arm of the molecule)
constant: B10 constant with Y174T, D200A
B46: equine IgG1 D312C (antibody, part only; not given: variable domains, not shown: another chain or arm of the molecule)
constant: B10 constant with Y174T, D200C
B47: equine IgG1 D312E (antibody, part only; not given: variable domains, not shown: another chain or arm of the molecule)
constant: B10 constant with Y174T, D200E

Biological target: equine FcRn (large alpha subunit p51) / equine beta-2-microglobulin complex, biotinylated (equine) (UniProt P30441)
Assay: SPR (Biacore), pH 6

Chain of UniProt P30441 (P30441 21-118, one chain of several): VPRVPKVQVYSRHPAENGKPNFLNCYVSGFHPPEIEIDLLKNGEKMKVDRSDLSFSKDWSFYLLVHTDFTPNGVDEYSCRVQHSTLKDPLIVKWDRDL

Binder | Kd [nM]
B1 | 48.3
B2 | 30.9
B3 | 27.2
B4 | 13.2
B5 | 20.2
B6 | 48.7
B7 | 34.4
B8 | 492
B9 | 252
B10 | 15
B11 | 22.2
B12 | 23.3
B13 | 27.1
B14 | 13.3
B15 | 24.7
B16 | 17.5
B17 | 20.3
B18 | 5.2
B19 | 24.5
B20 | 21.4
B21 | 21
B22 | 24.1
B23 | 15.3
B24 | 45

Binder | Kd [nM]
B25 | 26.9
B26 | 15.7
B27 | 54.6
B28 | 67.3
B29 | 47.5
B30 | 20.3
B31 | 20.1
B32 | 24.3
B33 | 12.6
B34 | 14.7
B35 | 16.1
B36 | 12
B37 | 24.3
B38 | 10.1
B39 | 24.4
B40 | 36.7
B41 | 17.4
B42 | 16.3
B43 | 21.2
B44 | 21.2
B45 | 9.86
B46 | 21
B47 | 25.2
